Measurements as given in patent US6933284 (University of California, dated 2005).
One block for each binder: values may come before it.

Tests used:
[1] = biological target: T1, recombinant control LDL (human apo-B100 with leucine in place of glutamine at position 2153) (human, UniProt P04114 28-4563); assay: summary table, LDL receptor binding
T1 construct: mature; one apo-B100 per particle, with lipid; also called wild-type recombinant LDL; 'Leu-Leu' apo-B100 LDL

[2] = biological target: T2, K3363E LDL (recombinant LDL, human apo-B100 with glutamic acid for lysine at residue 3363) (human, UniProt P04114 28-4563); assay: summary table, LDL receptor binding
T2 construct: mature; Tested as a purified LDL particle from transgenic mouse plasma

[3] = biological target: T3, recombinant control LDL without the 'Leu-Leu' mutation (LDL generated by the unmodified apo-B100 P1 … (human, UniProt P04114 28-4563)); assay: receptor-binding activity, details not given
T3 construct: mature; Tested as an LDL particle

human plasma LDL = biological target: T4, human plasma LDL (human, UniProt P04114 28-4563, 125I-labeled where used as tracer in the receptor assay); assay: gel-mobility shift, three independent experiments
T4 construct: mature; Native LDL particle; also called normal human plasma LDL
Experimental: (§1) The interaction between LDL and biglycan or versican was investigated by a gel-mobility shift assay (Camejo, G. et al. 1993. *J. Biol Chem.* 268:14131–14137). Before the assay, the (^35S)biglycan and (^35S)versican preparations were dialyzed extensively at 4° C. against 10 mM HEPES, 150 mM NaCl, 5 mM CaCl_2, and 2 mM MgCl_2 (pH 7.4, Buffer A), and the protein concentrations were determined (BioRad Laboratories) with bovine gamma globulin as the standard. Increasing concentrations of LDL were incubated with approximately 2000 dpm of (^35S)biglycan or (^35S)versican for 1 h at 37° C. in a total volume of 20 μl of Buffer A. Three microliters of bromophenol blue:glycerol (1:1, v/v) was added to the samples, and 20 μl was loaded into wells of 0.7% NuSieve (FMC BioProducts) agarose gels prepared on Gel-Bond film (FMC BioProducts). Electrophoresis was run for 3 h at 60V with recirculating buffer (10 mM HEPES, 2 mM CaCl_2, 4 mM MgCl_2 pH 7.2) in a cold room. Gels were fixed with 0.1% cetyl pyridium chloride in 70% ethanol for 90 min, air-dried, and exposed to Hyper Film-MP (Amersham Life Sciences) at ^-70° C. The (^35S)biglycan or (^35S)versican complexed to LDL appears as a band at the […] with a Hewlett Packard Scan Jet II cx and ImageQuant software (Molecular Dynamics).
(§2) This procedure has the advantages that only microgram quantities of lipoproteins are required and the relative affinity of LDL binding to the proteoglycans can be determined at physiological ionic and pH conditions. […] Of particular interest was that recombinant K3363E LDL interacted defectively with both versican and biglycan but had normal receptor binding.

[4] = biological target: T2, K3363E LDL (recombinant LDL, human …); assay: gel-mobility shift, three independent experiments
Experimental: as §1, §2

[5] = biological target: T5, RK3359-3369SA LDL (recombinant LDL, human apo-B100 with the arginines of Site B changed to serines and the … (human, UniProt P04114 28-4563)); assay: gel-mobility shift, three independent experiments
T5 construct: mature; Tested as a purified LDL particle from transgenic mouse plasma; Q2153L follows from the statement that R3500Q is the only LDL without the 'Leu-Leu' mutation; also called recombinant LDL with the uncharged Site B
Experimental: as §1, §2

[6] = biological target: T3, recombinant control LDL without the …; assay: gel-mobility shift, data not shown
Experimental: as §1, with “Before” for “The interaction between LDL and biglycan or versican was investigated by a gel-mobility shift assay (Camejo, G. et al. 1993. *J. Biol Chem.* 268:14131–14137). Before”
This procedure has the advantages that only microgram quantities of lipoproteins are required and the relative affinity of LDL binding to the proteoglycans can be determined at physiological ionic and pH conditions. […]

[7] = biological target: T1, recombinant control LDL (human apo-B100 …); assay: summary table, proteoglycan binding (biglycan and versican were the proteoglycans tested)

binding result [1]: binds | binding result [2]: binds | binding result [3]: binds
B1: LDL receptor on normal human fibroblasts (receptor)
chain: not shown
notes: whole, on cells; also called LDL receptors

binding result (human plasma LDL): binds | binding result [4]: binds | binding result [5]: binds | binding result [6]: binds | binding result [7]: binds
B2: (35S)biglycan from cultured human arterial smooth muscle cells (other, UniProt P21810 38-368, looked up)
chain: DEEASGADTSGVLDPDSVTPTYSAMCPFGCHCHLRVVQCSDLGLKSVPKEISPDTTLLDLQNNDISELRKDDFKGLQHLYALVLVNNKISKIHEKAFSPLRKLQKLYISKNHLVEIPPNLPSSLVELRIHDNRIRKVPKGVFSGLRNMNCIEMGGNPLENSGFEPGAFDGLKLNYLRISEAKLTGIPKDLPETLNELHLDHNKIQAIELEDLLRYSKLYRLGLGHNQIRMIENGSLSFLPTLRELHLDNNKLARVPSGLPDLKLLQVVYLHSNNITKVGVNDFCPMGFGVKRAYYNGISLFNNPVPYWEVQPATFRCVTDRLAIQFGNYKK
modifications: glycosaminoglycan chains metabolically labeled with (35S)SO4
notes: Proteoglycan: core protein with glycosaminoglycan chains; also called pool 3
